Measured values reported in patent US20100210517A1 (RAPTOR PHARMACEUTICAL, published 2010).

B1: 320RAP1 truncated variant (identical truncations as MatRAP1, amino acids 243-313) (ligand)
chain: FREELKHFEAKIESHNHYQKQLEIAHESMRHAESVGYGERMSRSREKHALLEGRTKELGYTVTMHLQDLSG
notes: also called truncated form of 320RAP1; not shown: N-terminal hexahistidine and S-peptide tags of pET30(+)a
B2: mRAPc (peptide)
peptide: CGFREELKHFEAKIEKHNHYQKQLEIAHEKLRHAESVGDGERVSRSREKHALLEGRTKELGYTVKKHLQDLSGGC
modifications: N-terminal biotin-GGSGG; intramolecular disulfide between C241 and C315 (mature RAP numbering)
notes: Synthetic; also called mRAPc peptide; monomeric peptide
B3: tag-free RAP d3 peptide (amino acids 201-319 of mature human RAP, C-terminal cysteine linked to biotin) (ligand)
chain: LDRLRRVSHQGYSTEAEFEEPRVIDLWDLAQSANLTDKELEAFREELKHFEAKIEKHNHYQKQLEIAHEKLRHAESVGDGERVSRSREKHALLEGRTKELGYTVKKHLQDLSGRISRARC
modifications: C-terminal cysteine linked to maleimide-PEO2-biotin
notes: Bacterially expressed, from GeneScript; lacks HNEL; also called full-length RAP d3
B4: 320RAP1 (full-length d3 variant) (ligand)
chain: LDRLRRVSHQGYSTEAEFEEPRVIDLWDLAQSANLTDKELEAFREELKHFEAKIESHNHYQKQLEIAHESMRHAESVGYGERMSRSREKHALLEGRTKELGYTVTMHLQDLSGRISRAR
notes: Selected by phage panning on the CR pair of FDC-8D6 antigen; not shown: N-terminal hexahistidine and S-peptide tags of pET30(+)a
B5: MatRAP1 d3 (ligand)
chain: LDRLRRVSHQGYSTEAEFEEPRVIDLWDLAQSANLTDKELEAFREELKHFGAKIERHNHYQKQLEIAHEWLRHAESVGDGERVSRSREKHALLEGRTKELGYTVKKHLQDLSGRISRAR
notes: Selected by phage panning on MAT CR23; also called RAP vMA; not shown: N-terminal hexahistidine and S-peptide tags of pET30(+)a
B6: MatRAP2 d3 (ligand)
chain: LDRLRRVSHQGYSTEAEFEEPRVIDLWDLAQPANLTDKGLEAFREGLKHFLAKIEPHNHYQKQLETVREPLRYAESVGDGERVSRSHEKYALLEGRTRELGYTVKKHLQDLFGRISRAR
notes: Selected by phage panning on MAT CR34; also called RAP vMB; not shown: N-terminal hexahistidine and S-peptide tags of pET30(+)a

Tests used:
[1] = biological target: T1, 8D6 CR12 (CR pair from FDC-8D6 antigen, CD320) (human, UniProt Q9NPF0 53-168); assay: solid-phase binding assay, CR protein coated on plate
T1 construct: also called FDC-8D6 antigen pair; target CR pair from FDC-8D6 antigen; not shown: N-terminal hexahistidine and S-peptide tags of pET30(+)a
Procedure: (§1) Control wells contained no added ligand. As an additional control, to determine whether the absence of calcium affected binding, 10 mM EGTA was included in the incubation medium for some samples. […] Excess primary antibody was removed and wells washed before incubation with the secondary antibody, HRP-conjugated goat anti rabbit IgG (Bio-Rad). After washing, TMB substrate solutions (Bio-Rad) were added to detect HRP. Color development was stopped with 1N HCl. Absorption at 450 nm was measured with a microplate spectrophotometer (Molecular Devices). Data were plotted and Kd values derived by non-linear regression with the assumption of single-site binding (GraphPad Prism).

[2] = biological target: T2, recombinant human LRP1 ligand binding cluster II (amino acids 786-1165, C-terminal Fc) (human); assay: competition ELISA on coated LRP1 cluster II-Fc; competitor called the heterologous ligand (FIG. 14C; the figure legend names uPA-PAI-1)
T2 construct: range 786-1165; Bought from R&D Systems, NS0-expressed; also called rhLRP1 cluster II; hrLRP1 cluster II
Procedure: (§2) Solid phase binding assays were performed using recombinant human LRP1 cluster II (amino acids 786-1165, with C-terminal Fc tag, 1 μg, R&D Systems, Minneapolis, Minn.) to coat Nunc MAXISORP™ 96-well plates in TBS pH 8 supplemented with 5 mM CaCl₂ (TBSC) overnight at 4° C. Data was generated by ELISA assay. Wells were washed with TBSC and blocked with TBSC containing 2% BSA. […] Control wells contained no added inhibitor. Wells were washed with TBS supplemented with 5 mM CaCl₂ and 0.05% Tween-20. Bound ligand was detected with either anti-S-peptide-HRP conjugate (Abcam, Cambridge, Mass.), anti-α-2-macroglobulin-HRP or anti-PAI-1-HRP. Excess HRP conjugate was removed and wells washed. Color was developed using TMB reagents (BioRad, Hercules, Calif.). Absorption at 450 nm was measured with a microplate spectrophotometer (Molecular Devices, Palo Alto, Calif.).

[3] = biological target: T3, recombinant mouse VLDLR ectodomain (amino acids 1-798, C-terminal hexahistidine) (mouse, UniProt P98156 28-798); assay: solid-phase binding assay, receptor coated on plate, streptavidin-HRP detection, EDTA-subtracted
T3 construct: range 1-798; Bought from R&D Systems, NS0-expressed; The printed range starts at 1 and so may count a signal peptide; also called rmVLDLR ectodomain; mVLDLR
Procedure: (§3) Solid phase binding assays were carried out as follows. Recombinant murine VLDLR ectodomain (aa 1-798, C-terminal hexahistidine, 1 μg) or rhLRP1 cluster II (aa 786-1165, C-terminal Fc, 1 μg) were bound to Nunc Maxisorp™ 96-well plates in TBS pH 8 supplemented with 5 mM CaCl₂ (TBSC) overnight at 4° C. Wells were washed with TBSC and then blocked with TBSC containing 2% BSA. Peptides were then incubated with the immobilized receptor at a range of concentrations for 2 hours in the above blocking buffer supplemented with 0.05% Tween-20 at room temperature. Identical binding reactions were done in the presence of 50 mM EDTA to provide a measure of non-specific binding. Control wells contained no added peptide. […] Excess streptavidin-HRP or primary antibody was removed and wells washed before incubation with the secondary antibody, when necessary, HRP-conjugated goat anti rabbit IgG (Bio-Rad). Color was developed using TMB reagents (BioRad). Absorption at 450 nm was measured with a microplate spectrophotometer (Molecular Devices). Absorption obtained in the presence of EDTA was subtracted from absorption obtained in the presence of calcium prior to analysis. Data were plotted and Kd values derived by non-linear regression with the assumption of single-site binding (GraphPad Prism).

[4] = biological target: T2, recombinant human LRP1 ligand binding …; assay: as above
Procedure: as §3

[5] = biological target: T2, recombinant human LRP1 ligand binding …; assay: competition ELISA, inhibition of RAP d3 (2 nM) binding to coated LRP1 cluster II-Fc
Procedure: as §2

[6] = biological target: T2, recombinant human LRP1 ligand binding …; assay: inhibitor pre-incubated with coated LRP1 cluster II-Fc, washed, then RAP d3 added; inhibition of RAP d3 binding
Procedure: as §2

[7] = biological target: T1, 8D6 CR12 (CR pair from FDC-8D6 antigen, …); assay: solid-phase assay on the coated FDC-8D6 antigen CR pair, relative binding
[8] = biological target: T4, MAT CR12 (human, UniProt Q9Y5Y6 452-524); assay: binding of truncated MatRAP1 forms to MAT CR12, relative signal under isomolar conditions
T4 construct: also called ST14 CR12; matriptase CR12
T4 sequence: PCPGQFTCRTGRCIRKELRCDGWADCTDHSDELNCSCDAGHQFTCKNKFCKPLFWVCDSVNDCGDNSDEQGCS
Procedure: as §1, with “Solid phase binding assays-Purified, refolded CR protein (1 μg) was bound to Nunc Maxisorp™ 96-well plates in TBS pH 8 supplemented with 5 mM CaCl₂ (TBSC) overnight at 4° C. Wells were washed with TBSC and then blocked with TBSC containing 2% bovine serum albumin (BSA). […] Control” for “Control”

[9] = biological target: T5, LRP2 CR89 (human, UniProt P98164 1025-1102); assay: solid-phase assay on coated CR protein, each ligand at 80 nM, blank-corrected absorbance
T5 construct: domain: CR89; also called YVWR; L2 CR89; not shown: N-terminal hexahistidine and S-peptide tags of pET30(+)a
Procedure: (§4) Samples were tested twice, in duplicate, and values combined. Means and standard deviations were then calculated. Blank values obtained from wells incubated in the absence of ligand were used to correct absorbance data.
as §1, with “Solid phase binding assays-Purified, refolded CR protein (1 μg) was bound to Nunc Maxisorp™ 96-well plates in TBS pH 8 supplemented with 5 mM CaCl₂ (TBSC) overnight at 4° C. Wells were washed with TBSC and then blocked with TBSC containing 2% bovine serum albumin (BSA). […] Control” for “Control”

[10] = biological target: T6, LRP2 CR3031 (human, UniProt P98164 3677-3755); assay: as above
T6 construct: domain: CR3031; Its cloning is not described in the methods; not shown: N-terminal hexahistidine and S-peptide tags of pET30(+)a
Procedure: as §4
as §1, with “Solid phase binding assays-Purified, refolded CR protein (1 μg) was bound to Nunc Maxisorp™ 96-well plates in TBS pH 8 supplemented with 5 mM CaCl₂ (TBSC) overnight at 4° C. Wells were washed with TBSC and then blocked with TBSC containing 2% bovine serum albumin (BSA). […] Control” for “Control”

[11] = biological target: T7, LRP2 CR3536 (human, UniProt P98164 3882-3963); assay: as above
T7 construct: domain: CR3536; not shown: N-terminal hexahistidine and S-peptide tags of pET30(+)a
Procedure: as §4
as §1, with “Solid phase binding assays-Purified, refolded CR protein (1 μg) was bound to Nunc Maxisorp™ 96-well plates in TBS pH 8 supplemented with 5 mM CaCl₂ (TBSC) overnight at 4° C. Wells were washed with TBSC and then blocked with TBSC containing 2% bovine serum albumin (BSA). […] Control” for “Control”

[12] = biological target: T8, LRP2 CR34-36 (human, UniProt P98164 3841-3963); assay: as above
T8 construct: domain: CR34-36; not shown: N-terminal hexahistidine and S-peptide tags of pET30(+)a
Procedure: as §4
as §1, with “Solid phase binding assays-Purified, refolded CR protein (1 μg) was bound to Nunc Maxisorp™ 96-well plates in TBS pH 8 supplemented with 5 mM CaCl₂ (TBSC) overnight at 4° C. Wells were washed with TBSC and then blocked with TBSC containing 2% bovine serum albumin (BSA). […] Control” for “Control”

[13] = biological target: T9, LRP2 CR2728 (human, UniProt P98164 3552-3631); assay: as above
T9 construct: domain: CR2728; Its cloning is not described in the methods; not shown: N-terminal hexahistidine and S-peptide tags of pET30(+)a
T9 sequence (looked up): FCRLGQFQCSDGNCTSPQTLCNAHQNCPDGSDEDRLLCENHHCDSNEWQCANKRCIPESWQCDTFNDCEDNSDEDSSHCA
Procedure: as §4
as §1, with “Solid phase binding assays-Purified, refolded CR protein (1 μg) was bound to Nunc Maxisorp™ 96-well plates in TBS pH 8 supplemented with 5 mM CaCl₂ (TBSC) overnight at 4° C. Wells were washed with TBSC and then blocked with TBSC containing 2% bovine serum albumin (BSA). […] Control” for “Control”

T2 sequence (Q07954 786-1165): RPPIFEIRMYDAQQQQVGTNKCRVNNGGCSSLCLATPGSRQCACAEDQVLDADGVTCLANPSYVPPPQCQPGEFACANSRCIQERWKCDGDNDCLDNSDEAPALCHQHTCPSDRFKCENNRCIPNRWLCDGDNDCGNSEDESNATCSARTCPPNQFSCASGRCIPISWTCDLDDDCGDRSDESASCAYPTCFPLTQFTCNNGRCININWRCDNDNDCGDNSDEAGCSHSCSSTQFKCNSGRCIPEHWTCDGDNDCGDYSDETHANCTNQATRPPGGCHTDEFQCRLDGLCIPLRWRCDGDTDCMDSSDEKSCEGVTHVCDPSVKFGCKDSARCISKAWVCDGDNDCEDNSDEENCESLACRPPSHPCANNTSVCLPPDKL
T5 sequence (P98164 1025-1102): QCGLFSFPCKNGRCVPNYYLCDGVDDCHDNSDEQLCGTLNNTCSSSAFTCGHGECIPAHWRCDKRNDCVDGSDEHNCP
T8 sequence (P98164 3841-3963): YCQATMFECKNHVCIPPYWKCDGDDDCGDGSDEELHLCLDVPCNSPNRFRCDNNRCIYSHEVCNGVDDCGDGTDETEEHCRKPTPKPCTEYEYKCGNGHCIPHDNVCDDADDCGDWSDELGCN
T6 sequence (P98164 3677-3755): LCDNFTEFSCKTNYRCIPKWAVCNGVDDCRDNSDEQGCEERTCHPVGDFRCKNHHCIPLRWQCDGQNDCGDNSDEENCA
T1 sequence (Q9NPF0 other isoform, or with tags, fused parts or gaps): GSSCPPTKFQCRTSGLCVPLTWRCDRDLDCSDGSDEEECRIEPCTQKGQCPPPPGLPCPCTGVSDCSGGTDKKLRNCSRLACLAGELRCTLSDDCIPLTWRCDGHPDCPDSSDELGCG
T7 sequence (P98164 3882-3963): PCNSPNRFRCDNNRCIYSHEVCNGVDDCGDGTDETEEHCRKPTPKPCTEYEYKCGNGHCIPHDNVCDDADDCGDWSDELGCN
T3 sequence (P98156 other isoform, or with tags, fused parts or gaps limits assumed, form in doubt): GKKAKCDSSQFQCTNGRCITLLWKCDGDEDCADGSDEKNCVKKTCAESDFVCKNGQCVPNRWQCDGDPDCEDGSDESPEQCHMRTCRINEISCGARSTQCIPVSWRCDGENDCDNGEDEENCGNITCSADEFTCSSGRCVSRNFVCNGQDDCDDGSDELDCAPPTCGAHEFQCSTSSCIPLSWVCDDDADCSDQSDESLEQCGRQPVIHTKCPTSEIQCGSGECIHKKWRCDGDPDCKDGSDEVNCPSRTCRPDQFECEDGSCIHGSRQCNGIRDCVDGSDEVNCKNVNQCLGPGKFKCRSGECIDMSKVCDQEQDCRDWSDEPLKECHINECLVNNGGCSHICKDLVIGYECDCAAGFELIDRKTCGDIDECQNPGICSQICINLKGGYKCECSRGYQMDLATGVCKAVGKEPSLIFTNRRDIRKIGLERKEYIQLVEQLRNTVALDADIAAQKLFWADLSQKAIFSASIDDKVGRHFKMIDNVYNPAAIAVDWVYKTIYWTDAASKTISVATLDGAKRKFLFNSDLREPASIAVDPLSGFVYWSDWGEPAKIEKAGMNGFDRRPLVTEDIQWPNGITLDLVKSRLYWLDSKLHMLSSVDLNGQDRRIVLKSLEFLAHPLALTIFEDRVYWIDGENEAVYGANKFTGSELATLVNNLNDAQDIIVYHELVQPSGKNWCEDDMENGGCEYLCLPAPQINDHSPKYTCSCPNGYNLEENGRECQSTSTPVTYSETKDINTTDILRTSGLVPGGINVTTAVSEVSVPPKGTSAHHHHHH

Binder | Kd [3] | Kd [4] | binding result [9] | binding result [10] | binding result [11] | binding result [12] | binding result [13] | further results
B1 | – | – | – | – | – | – | – | fold improvement in affinity against the full-length variant [1]: 3.5 fold
B2 | 5 nM | 10 nM | – | – | – | – | – | EC50 [2]: 7 nM; EC50 [5]: 32 nM; EC50 [6]: 17 nM
B3 | 1 nM | 8 nM | – | – | – | – | – | –
B4 | – | – | – | – | – | – | – | EC50 (read off the curve) [7]: ~7 nM
B5 | – | – | no binding (tested: 80 nM) | no binding (tested: 80 nM) | no binding (tested: 80 nM) | no binding (tested: 80 nM) | no binding (tested: 80 nM) | fnctn (relative binding signal under isomolar conditions) [8]: 0.22
B6 | – | – | no binding (tested: 80 nM) | no binding (tested: 80 nM) | no binding (tested: 80 nM) | no binding (tested: 80 nM) | no binding (tested: 80 nM) | –
